Laboratory results reported in patent US20090263383A1 (Amgen, published 2009).

B1: Antibody No. 7 (Ab-7) (antibody, V domains shown)
VH: EVQLVQSGAEVKKPGESLKISCKGYGYDFSRDWIAWVRQMPGKGLEWMGIIYPGDSDTRYSPSFEGQVTISADKSISTAYLQWRSLKASDTAMYYCARQRRLGWFDPWGQGTMVTVSS
VL: RSVLTQPPSVSAAPGQKVTISCSGSTSNIGNNYVSWYQQHPGKAPKLMIYDVSKRPSGVPDRFSGSKSGNSASLDISGLQSEDEADYYCAAWDDSLSEFLFGTGTKLTVL
B2: Antibody No. 2 (Ab-2) (antibody, V domains shown)
VH: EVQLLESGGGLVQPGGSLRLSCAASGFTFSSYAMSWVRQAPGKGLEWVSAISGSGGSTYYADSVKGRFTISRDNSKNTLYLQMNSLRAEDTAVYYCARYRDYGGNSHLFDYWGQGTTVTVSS
VL: EIVMTQSPSSLPASVGDRVTITCRASQNIKTYLHWYQQKPGKAPNLLIYAASNLQIGVPSRFSGSGSGTDFTLTISSLQPEDFATYFCQQSYITPPTFGQGTRLEIK
B3: Antibody No. 4 (Ab-4) (antibody, V domains shown)
VH: QVQLVQSGAEVKKPGASVKVSCKASGYTFTSYYMHWVRQAPGQGLEWMGIINPSDGSTRYVEKFQGRVTMTRDTSTSTVYMELSSLRSEDTAVYFCARGMGPGPHYHFYMDVWGKGTMVTVSS
VL: SSELTQDPAVSVALGQTVRITCQGDSLRSYYTNWFQQKPGQAPLLVVYAKNKRPSGIPDRFSGSSSGNTASLTITGAQAEDEADYYCHSRDSGGNHVLFGGGTKLTVL
B4: Antibody No. 5 (Ab-5) (antibody, V domains shown)
VH: QVQLVQSGAEVKKPGASVKVSCKASGYTFTGQYIHWVRQAPGQGLEWMGWISAYNGYTDYAQKVQGRVTMTTDTSTSTAYMELRSLRSDDTAVYYCAREVWPVAAADTFSVFDIWGRGTLVTVSS
VL: SSELTQDPAVSVALGQTVRITCQGDSLRSYYASWYQQKPGQAPVLVIYGKNNRPSGIPDRFSGSSSGNTASLTITGAQAEDEADYYCNSRDSSGNHVVFGGGTKLTVL
B5: Antibody No. 1 (Ab-1) (antibody, V domains shown)
VH: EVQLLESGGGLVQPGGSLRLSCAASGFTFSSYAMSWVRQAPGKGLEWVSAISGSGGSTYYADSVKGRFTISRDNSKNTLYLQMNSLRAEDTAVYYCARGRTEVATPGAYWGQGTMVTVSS
VL: QAVLTQPSSVSGAPGQRVTISCTGSSSNIGAGYDVHWYQQLPGTAPKLLIYGNSNRPSGVPDRFSGSKSGTSASLAVTGLQAEDEADYYCQSYDSSLSDVVFGGGTKLTVL
B6: Antibody No. 8 (Ab-8) (antibody, V domains shown)
VH: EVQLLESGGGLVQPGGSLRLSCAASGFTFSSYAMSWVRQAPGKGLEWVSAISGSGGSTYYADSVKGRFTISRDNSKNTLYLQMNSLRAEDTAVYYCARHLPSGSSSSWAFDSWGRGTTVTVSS
VL: SYVLTQPPSASGTPGQRVTISCSGSSSNIGSNYVYWYQQLPGTAPKLLIYRNNQRPSGVPDRFSGSKSGTSASLAISGLQSEDEADYYCEAWDDNVDGPVFGGGTKLTVL
B7: Antibody No. 6 (Ab-6) (antibody, V domains shown)
VH: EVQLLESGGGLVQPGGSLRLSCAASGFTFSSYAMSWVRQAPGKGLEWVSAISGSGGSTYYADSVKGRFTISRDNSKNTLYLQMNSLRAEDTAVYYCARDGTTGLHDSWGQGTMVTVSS
VL: QSVLTQPPSASGTPGQRVTISCSGSSSNVGSNFVYWYQQFPGTAPKLLIYRNNQRPSGVPDRFSGSKSGTSASLAISGLRSEDEADYYCAAWDDTLNGHYVFGGGTKLTVL
B8: Antibody No. 3 (Ab-3) (antibody, V domains shown)
VH: GVQLVQSGAEVKKPGASVKVSCKASGYTFTSYYMHWVRQAPGQGLEWMGIINPSGGSTSYAQKFQGRVTMTRDTSTSTVYMELSSLRSEDTAVYYCARRVISGAFDIWGQGTMVTVSS
VL: DIQMTQSPSTLSASIGDRVTITCRASEGIYHWLAWYQQKPGKAPKLLIYKASSLASGAPSRFSGSGSGTDFTLTISSLQPDDFATYYCQQYSNYPLTFGGGTKLEIK

Target: T1, huCD148 on human endothelial cells (planar migration assay) (human, UniProt Q12913 36-1337)
T1 sequence (looked up): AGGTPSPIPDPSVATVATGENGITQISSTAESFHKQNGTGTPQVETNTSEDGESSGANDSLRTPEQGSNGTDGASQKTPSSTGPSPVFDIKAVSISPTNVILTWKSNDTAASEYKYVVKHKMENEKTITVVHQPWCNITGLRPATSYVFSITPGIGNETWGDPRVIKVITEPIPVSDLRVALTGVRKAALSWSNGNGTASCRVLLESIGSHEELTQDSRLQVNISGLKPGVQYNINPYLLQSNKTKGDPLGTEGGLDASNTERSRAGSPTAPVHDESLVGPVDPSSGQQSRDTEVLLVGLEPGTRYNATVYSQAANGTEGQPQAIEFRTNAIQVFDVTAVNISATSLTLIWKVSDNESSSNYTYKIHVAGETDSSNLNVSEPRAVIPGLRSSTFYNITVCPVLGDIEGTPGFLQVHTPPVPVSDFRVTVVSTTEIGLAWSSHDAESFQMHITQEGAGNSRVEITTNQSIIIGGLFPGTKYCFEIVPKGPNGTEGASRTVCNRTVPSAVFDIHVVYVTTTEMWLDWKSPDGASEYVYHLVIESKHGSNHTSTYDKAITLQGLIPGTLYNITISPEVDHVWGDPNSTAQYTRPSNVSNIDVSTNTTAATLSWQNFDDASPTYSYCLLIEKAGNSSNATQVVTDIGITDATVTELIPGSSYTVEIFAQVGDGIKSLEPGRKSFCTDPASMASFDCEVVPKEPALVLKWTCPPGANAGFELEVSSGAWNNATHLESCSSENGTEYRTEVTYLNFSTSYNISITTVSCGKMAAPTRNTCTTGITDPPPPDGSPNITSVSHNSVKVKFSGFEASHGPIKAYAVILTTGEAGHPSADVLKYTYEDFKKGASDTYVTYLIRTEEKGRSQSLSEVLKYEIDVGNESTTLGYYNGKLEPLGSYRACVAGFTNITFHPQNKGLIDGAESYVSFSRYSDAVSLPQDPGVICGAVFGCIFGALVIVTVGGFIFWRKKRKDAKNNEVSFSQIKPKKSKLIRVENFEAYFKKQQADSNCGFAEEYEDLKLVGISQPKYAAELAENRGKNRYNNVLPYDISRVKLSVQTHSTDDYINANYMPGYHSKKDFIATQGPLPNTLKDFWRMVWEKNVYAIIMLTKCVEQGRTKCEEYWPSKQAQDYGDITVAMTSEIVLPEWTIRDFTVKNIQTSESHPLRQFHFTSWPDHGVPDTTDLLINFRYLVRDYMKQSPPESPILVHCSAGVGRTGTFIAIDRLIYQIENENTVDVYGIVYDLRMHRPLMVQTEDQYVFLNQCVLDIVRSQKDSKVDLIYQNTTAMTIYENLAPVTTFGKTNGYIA
Experiment: cell-based or functional assay

Binder | inhibiting human endothelial cell migration and/or inhibited angiogenesis in the corneal angiogenesis assay
B1 | ≥ 20%
B2 | ≥ 20%
B3 | ≥ 20%
B4 | ≥ 20%
B5 | ≥ 20%
B6 | ≥ 20%
B7 | ≥ 20%
B8 | ≥ 20%
